Data taken from patent US20250263500A1 (BEIJING KANGHONG BIOMEDICAL, published 2025).
Substitutions are numbered along the chain they refer to.

T1: CD24 (human, UniProt P25063 27-59)
T1 chain (looked up): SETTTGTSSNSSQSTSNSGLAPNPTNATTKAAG

B1: KH01 (antibody, mouse IgG2a, kappa, V domains shown)
VH: DVQLQESGPDLVKPSQSLSLTCTVTGHSITRGYSWHWIRQFPGNKLEWMGYIHHRGTTNYNPSLKSRISFTRDTSKNQFFLQLNSLTTEDTATYFCSRGTNSAFDYWGQGTTLTVSS
VL: DIQMTQTTSSLSASLGDRVTISCRASQDISNYLNWYQQKPDGTVKLLIYYTSRLHSGVPSRFSGSGSGTDYSLTISNLEQEDIATYFCQQGNTLPHTFGGGTKLEIKR
B2: KH05 (antibody, mouse IgG2b, kappa, V domains shown)
VH: B1 VH with R31N, R55S, T57S, F95Y, S97L, N101D, S102R, A103S
VL: DIVMSQSPSSLVVSVGEKISMSCKSSQSLLYSNNQKNYLAWYQQIPGQSPKLLIYWASTRESGVPDRFTGSGSGTDFTLTISSVKAEDLAVYYCQQYYIYPLTFGSGTKLEIKR
B3: KH14 (antibody, mouse IgG2b, kappa, V domains shown)
VH: B1 VH with R31N, R55S, T57S, F95Y, S97L, N101D, S102R, A103S
VL: B2 VL with V12A, K18N, S20T, S22T, A40T, I45N, L102F
B4: KH25 (antibody, mouse IgG2b, kappa, V domains shown)
VH: B1 VH with T57S
VL: B2 VL
B5: KH03 (antibody, mouse IgG2a, kappa, V domains shown)
VH: B1 VH with T57S
VL: B2 VL with V12T, S20T, N33S, N34D, I45N, E61A, V91I
B6: KH16 (antibody, mouse IgG2a, kappa, V domains shown)
VH: DVQLQESGPDLVKPSQSLSLTCTVTGYSITSGYTWHWIRQFPGNKLEWMGYIQYSGSTNYNPSLKSRISFTRDTSKNQFFLQLNSVTTEDTATYYCARGTTGGLDYWGQGTTLTVSS
VL: B2 VL with V12T, S20T, N33S, N34D, I45N, R60K, E61A
B7: KH06 (antibody, V domains shown)
VH: DVQLQESGPDLVNPSQSLSLTCTVTGYSISRGYSWHWLRRFPGNKLEWMGFIHYSGTTNYNPSLKSRISFTRDTSKNQFFLQLNSLTTEDTATYYCLRGTDRSFDYWGQGTTLTVSS
VL: B2 VL
B8: KH02 (antibody, mouse IgG2a, kappa, V domains shown)
VH: DVQLQESGPDLVKPSHSLSLTCTVTGYSITRGYSWHWIRQFPGNKLEWMGYIHYSGSTNYNPSLKSRISFTRDTSKNQFFLNLTSLTSEDTATYYCSRGSTWAFDHWGQGTILTVSS
VL: B2 VL with V12A, S20T, W56L, Y98F, L102M, T103S
B9: KH33 (antibody, mouse IgG2a, kappa, V domains shown)
VH: B1 VH
VL: QIVLTQSPAIMSASPGEKVTMTCSASSSISYMHWYQQKPGTSPKRWIYDTSKLASGVPARFSGSGSGTSYSLTISSMEAEDAATYYCHQRSSYPCTFGGGTKLEIKR
B10: KH21 (antibody, mouse IgG2a, kappa, V domains shown)
VH: B1 VH
VL: B2 VL with V12T, S20T, N33S, N34D, I45N, R60K, E61A
B11: KH29 (antibody, mouse IgG2b, kappa, V domains shown)
VH: B1 VH with S66N
VL: B2 VL with V12A, I19V, S20T, M21L, S22N, N33K, L39S, I45K, S106A, I112L
B12: KH04 (antibody, mouse IgG2a, kappa, V domains shown)
VH: B1 VH with T57S, S97L
VL: B2 VL with V12T, S20T, N33S, N34D, I45N, R60K, E61A
B13: KH10 (antibody, mouse IgG2a, kappa, V domains shown)
VH: B1 VH with T57S
VL: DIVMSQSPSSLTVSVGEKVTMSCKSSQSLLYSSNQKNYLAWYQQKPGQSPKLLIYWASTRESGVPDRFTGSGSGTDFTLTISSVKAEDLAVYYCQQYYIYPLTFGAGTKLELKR
B14: KH19 (antibody, mouse IgG2b, kappa, V domains shown)
VH: B1 VH with R31N, R55S, T57S, F95Y, S97L, N101D, S102R, A103S
VL: DIVMSQSPSSLAVSVGEKVTVSCKSSQSLLYSSDQKNYLTWYQQKPGQSPKLLIYWASTRESGVPDRFTGGGSGTDFTLTISSVRAEDLAVYYCQQYFIYPFTFGSGTKLEIKR
B15: KH07 (antibody, mouse IgG2b, kappa, V domains shown)
VH: DVQLQESGPDLEKPSQSLSLTCTVTGYSITRGYSWHWIRQFPGNKLEWMGYIHYSGSTKYNPSLKSRVSFTRDTSKNQFFLQLNSLSPEDTATYYCSRGSDRAFDYWGQGTTLTVSS
VL: B2 VL with V12A, V15I, I19V, S20T, S22N, K24Q, A40V, I45K, Y55H, L102F
B16: KH12 (antibody, mouse IgG2a, kappa, V domains shown)
VH: B8 VH with L18F, S57N, I68F
VL: B14 VL with A12T, V21M, E61Y, G71S, R85K, F98Y
B17: KH27 (antibody, mouse IgG2b, kappa, V domains shown)
VH: B6 VH with S31R, Y54F, N59K, I68F, F70I, G102T, G103A, T112S, L113V
VL: B14 VL with V15I, V21M, S22N, K24Q, D34N, T40V, Y55H, G71S, R85K, F98Y

Biological target: T1, CD24
Test: cell-based or functional assay

| Phagocytosis rate (%) (MCF-7 tumor cells by human PBMC-derived M2 macrophages, antibody 5 µg/ml) | Binder |
| --- | --- |
| 6.2 | B1 |
| 3.2 | B2 |
| 3.4 | B3 |
| 6.5 | B4 |
| 3.6 | B5 |
| 6.8 | B6 |
| 4.3 | B7 |
| 3 | B8 |

Biological target: T1, CD24
Test: cell-based or functional assay
Remark: another data set of the same source

| Phagocytosis rate % (A549 tumor cells by human PBMC-derived M2 macrophages, antibody 5 µg/ml) [%] | Binder |
| --- | --- |
| 11.8 | B1 |
| 18.3 | B9 |
| 10.4 | B2 |
| 10.2 | B10 |
| 8.95 | B11 |
| 11.2 | B3 |
| 11 | B4 |
| 12.8 | B12 |
| 11.9 | B5 |
| 12.1 | B13 |
| 10.3 | B14 |
| 10.1 | B15 |
| 12.3 | B6 |
| 10.9 | B7 |
| 11.1 | B16 |
| 10.6 | B17 |
| 10.3 | B8 |
